For two molecules, IC50 and Kd results are on record in article PMC3417354 (Analytical biochemistry, 2012).

One may read the IC50 as the concentration that gives 50% inhibition. Lower therefore signals inhibition by little substance. As usually defined, the Kd is the free concentration of one partner at which half of the binding sites on the other are occupied at equilibrium, for simple one-to-one binding.

In the assay the target is human proliferating cell nuclear antigen (PCNA), no tag (human, UniProt P12004 1-261). In words: fluorescence polarisation. On the technique in general: In fluorescence polarisation assays a small probe gives low polarisation when free and higher when bound to something large.
Sequence of human proliferating cell nuclear antigen (PCNA), no tag (P12004 whole entry): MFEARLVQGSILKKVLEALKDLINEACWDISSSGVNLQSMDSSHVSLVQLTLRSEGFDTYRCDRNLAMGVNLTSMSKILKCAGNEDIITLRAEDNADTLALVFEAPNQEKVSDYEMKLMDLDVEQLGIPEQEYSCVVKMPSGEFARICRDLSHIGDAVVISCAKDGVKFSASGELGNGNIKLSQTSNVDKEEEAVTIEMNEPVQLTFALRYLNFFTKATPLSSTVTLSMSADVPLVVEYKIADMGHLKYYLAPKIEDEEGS

B1: trivalent p21 peptide (peptide)
chain: KRRQTSMTDFYHSKRRLIFSGGSGGSGGSGGSGGSGGSKRRQTSMTDFYHSKRRLIFSGGSGGSGGSGGSGGSGGSKRRQTSMTDFYHSKRRLIFS
For B1, the IC50 was found to be 600 nM and the Kd turned out to be 2.2 ± 0.2 nM.

B2: divalent p21 peptide (peptide)
chain: KRRQTSMTDFYHSKRRLIFSGGSGGSGGSGGSGGSGGSKRRQTSMTDFYHSKRRLIFS
In the case of B2, it took 1000 nM to reach half-maximal inhibition (IC50) and the Kd is 30 ± 2 nM.
